Experimental data: patent US10124035B2, “DISC-1 pathway activators in the control of neurogenesis” (Massachusetts Institute of Technology, priority 2008, dated 2018)
“Also recorded” adds a separate entry of the source.

B1: Wnt3a: Recombinant Wnt3a protein obtained from Chemicon (protein, UniProt P56704 19-352, looked up)
Protein Wnt-3a: SYPIWWSLAVGPQYSSLGSQPILCASIPGLVPKQLRFCRNYVEIMPSVAEGIKIGIQECQHQFRGRRWNCTTVHDSLAIFGPVLDKATRESAFVHAIASAGVAFAVTRSCAEGTAAICGCSSRHQGSPGKGWKWGGCSEDIEFGGMVSREFADARENRPDARSAMNRHNNEAGRQAIASHMHLKCKCHGLSGSCEVKTCWWSQPDFRAIGDFLKDKYDSASEMVVEKHRESRGWVETLRPRYTYFKVPTERDLVYYEASPNFCEPNPETGSFGTRDRTCNVSSHGIDGCDLLCCGRGHNARAERRREKCRCVFHWCCYVSCQECTRVYDVHTCK
B2: DISC1 fragment 356-595: GST-tagged mouse DISC1 protein fragment, amino acids 356-595 (protein, UniProt Q811T9 356-595, looked up, fragment)
chain: LKLQKCQEKVVEDGDYDTAETLRQRLEELEQEKGRLSWALPSQQPALRSFLGYLAAQIQVALHGATQRAGSDDPEAPLEGQLRTTAQDSLPASITRRDWLIREKQRLQKEIEALQARMSALEAKEKRLSQELEEQEVLLRWPGCDLMALVAQMSPGQLQEVSKALGETLTSANQAPFQVEPPETLRSLRERTKSLNLAVRELTAQVCSGEKLCSSLRRRLSDLDTRLPALLEAKMLALSG
modifications: GST tag
B3: DISC1 fragment 1-220: GST-tagged mouse DISC1 protein fragment, amino acids 1-220 (protein)
chain: MQGGGPRGAPIHSPSHGADSGHGLPPAVAPQRRRLTRRPGYMRSTAGSGIGFLSPAVGMPHPSSAGLTGQQSQHSQSKAGQCGLDPGSHCQASLVGKPFLKSSLVPAVASEGHLHPAQRSMRKRPVHFAVHSKNDSRQSERLTGSFKPGDSGFWQELLSSDSFKSLAPSLDAPWNKGSRGLKTVKPLASPALNGPADIASLPGFQDTFTSSFSFIQLSLG
modifications: left off: a dimerising Fc or GST

What was measured:
[1] = tested on: adult hippocampal progenitor (AHP) cells; test: AHP cell proliferation, BrdU labeling and mitotic index; assay type: cell-based; settings: Wnt3a 200 ng/ml
Description: (§1) • Mice. Swiss Webster pregnant female mice were purchased from Taconic (Hudson, N.Y.). • Cell Culture. AHPs were kindly provided by Dr. Gage (Lie, D. C. et al. Wnt signaling to regulates adult hippocampal neurogenesis. Nature 437, 1370-5 (2005)) and cultured under conditions described previously (Palmer, T. D., Takahashi, J. & Gage, F. H. The adult rat hippocampus contains primordial neural stem cells. Mol Cell Neurosci 8, 389-404 (1997)). Primary neural progenitors were isolated from E14 mouse embryos and cultured as described previously (Sanada, K. & Tsai, L. H. G protein betagamma subunits and AGS3 control spindle orientation and asymmetric cell fate of cerebral cortical progenitors. Cell 122, 119-31 (2005)). N2a and 293T cells were cultured in DMEM medium containing 10% FBS, L-glutamine, and penicillin/streptomycin. Wnt3a expressing L cells and untransfected L cells were obtained from ATCC (Manassas, Va.). Wnt3a conditional medium was produced according to the ATCC protocol. To induce AHP differentiation, FGF2 was removed from the culture medium and 1 μM retinoic acid/1% FBS was added to the medium for 4 days. • Reagents. Recombinant Wnt3a protein was obtained from Chemicon (Rosemont, Ill.). FGF2 was obtained from PeproTech (Rocky Hill, N.J.). Recombinant GST-GSK3β was obtained from Active Motif (Carlsbad, Calif.). […]

[2] = biological target: T1, GSK3β (Homo sapiens, UniProt P49841); test: GSK3β in vitro kinase assay (β-catenin/axin phosphorylation, Y216 autophosphorylation); assay type: biochemical; settings: for inhibition of GSK3β activity by DISC1 fragments: no single concentration, dose dependence, rank
T1 construct: GST; purchased Active Motif (Carlsbad, Calif.)
T1 sequence (P49841 whole entry, the tested form may be a part): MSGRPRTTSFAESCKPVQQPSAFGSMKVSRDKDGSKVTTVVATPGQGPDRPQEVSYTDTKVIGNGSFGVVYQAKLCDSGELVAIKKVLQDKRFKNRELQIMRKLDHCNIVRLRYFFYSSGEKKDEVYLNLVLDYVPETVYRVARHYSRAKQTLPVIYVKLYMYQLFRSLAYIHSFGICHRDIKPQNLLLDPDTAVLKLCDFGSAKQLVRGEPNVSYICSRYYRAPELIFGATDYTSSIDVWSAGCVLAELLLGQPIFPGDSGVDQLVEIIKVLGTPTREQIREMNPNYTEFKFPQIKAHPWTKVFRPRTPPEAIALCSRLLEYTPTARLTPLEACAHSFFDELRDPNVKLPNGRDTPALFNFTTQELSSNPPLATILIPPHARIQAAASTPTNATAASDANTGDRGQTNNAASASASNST
Description: • Mice. Swiss Webster pregnant female mice were purchased from Taconic (Hudson, N.Y.). • Cell Culture. AHPs were kindly provided by Dr. Gage (Lie, D. C. et al. Wnt signaling to regulates adult hippocampal neurogenesis. Nature 437, 1370-5 (2005)) and cultured under conditions described previously (Palmer, T. D., Takahashi, J. & Gage, F. H. The adult rat hippocampus contains primordial neural stem cells. Mol Cell Neurosci 8, 389-404 (1997)). Primary neural progenitors were isolated from E14 mouse embryos and cultured as described previously (Sanada, K. & Tsai, L. H. G protein betagamma subunits and AGS3 control spindle orientation and asymmetric cell fate of cerebral cortical progenitors. Cell 122, 119-31 (2005)). N2a and 293T cells were cultured in DMEM medium containing 10% FBS, L-glutamine, and penicillin/streptomycin. Wnt3a expressing L cells and untransfected L cells were obtained from ATCC (Manassas, Va.). Wnt3a conditional medium was produced according to the ATCC protocol. To induce AHP differentiation, FGF2 was removed from the culture medium and 1 μM retinoic acid/1% FBS was added to the medium for 4 days. • Reagents. Recombinant Wnt3a protein was obtained from Chemicon (Rosemont, Ill.). FGF2 was obtained from PeproTech (Rocky Hill, N.J.). Recombinant GST-GSK3β was obtained from Active Motif (Carlsbad, Calif.). Recombinant GST-β-catenin and GST-axin were obtained from Millipore (Billerica, Mass.). The GSK313 inhibitor, SB-216763, AR-A104418 and His-GSK3β, were obtained from Sigma-Aldrich (Sigma-Aldrich, St. Louis, Mo.). L803-MTS was obtained from Calbiochem (San Diego, Calif.). GST-AKT1 was obtained from Cell Signaling (Beverly, Mass.). GST-CASK-1 (CASK fragment from 316-415aa), GST-CASK-2 (CASK fragment from 777-974aa), and GST-p25 proteins were kindly provided by Dr. B. A. Samuels. Mouse DISC1 peptidel (40-78aa: GYMRSTAGSG IGFLSPAVGMPHPSSAG LTGQQSQHSQS; SEQ ID NO: 1) and Mouse DISC1 peptide 2 (195-238aa, […] GERGEAEGCLPSREAE; SEQ ID NO: 2) were synthesized by Chi Scientific (Maynard, Mass.). • Antibodies. The primary antibodies used in this study were the following: rabbit anti-DISC1 C-terminal antibody, mouse and rabbit anti-GFP antibodies (Invitrogen, Carlsbad, Calif.); affinity purified rabbit anti-DISC1 antibody (Novus, Littleton, Colo.) for immunohistochemistry; mouse anti-FLAG and mouse anti-Actin antibody; mouse anti-GSK3β antibody, mouse anti-β-catenin antibody, mouse anti-pY216 GSK3β antibody, and mouse anti-nestin antibody (BD Biosciences, San Diego, Calif.); rabbit anti-[…] β-catenin antibody, rabbit anti-pS9 GSK3β antibody, and mouse anti-cyclin to D1 antibody (Cell Signaling); mouse anti-Dv12 antibody, mouse anti-HA antibody, mouse anti-GST antibody, mouse anti-ubiquitin antibody, and rabbit anti-β-catenin antibody (Santa Cruz, Santa Cruz, Calif.); mouse Tuj-1 antibody (BABCO, Harrisburg, Pa.); mouse anti-BrdU antibody (DakoCytomation, Glostrup, Denmark); guinea pig anti-doublecortin antibody (Chemicon, Rosemont, Ill.); chicken anti-GFP antibody (Ayes Labs, Tigard, Oreg.); rabbit anti-pS10 Histone H3 antibody (Upstate, Lake Placid, N.Y.). • Constructs. The sequences for shRNAs targeting DISC1 are as follows: control shRNA: 5′-CGGCTGAAACAAGAGTTGG-3′ (SEQ ID NO:3); DISC1 shRNA-1: 5′-GGCAAACACTGTGA AGT GC-3′ (SEQ ID NO:4); DISC1 shRNA-2: 5′-[…]-3′ (SEQ ID NO:5)(Kamiya A. et al. A schizophrenia-associated mutation of DISC1 perturbs cerebral cortex development. Nat. Cell Biol 7, 1167-78 (2005)). DISC1 shRNA-1 recognizes both rat and mouse DISC1. […]

[3] = biological target: T2, His-GSK3β (Homo sapiens, UniProt P49841); test: In vitro association (GST pull-down) with purified His-GSK3β; assay type: binding; settings: GST-tagged DISC1 fragments, in vitro association assay
T2 construct: purchased Sigma-Aldrich (St. Louis, Mo.)
T2 sequence (P49841 whole entry, the tested form may be a part): as above
Description: as §1

| Molecule | proliferation of AHPs [1] | inhibition of GSK3β autophosphorylation (Y216) ([2]; GST-DISC1 fragments at 2 μM) | inhibition of GSK3β activity by DISC1 fragments [2] | interaction with purified His-GSK3β [3] | inhibition of β-catenin, axin and GSK3β phosphorylation ([2]; GST fusion proteins at 0.5 μM) | inhibition of GSK3β Y216 phosphorylation ([2]; at 0.1 μM) | inhibition of GSK3β Y216 phosphorylation ([2]; at 1 μM) |
| --- | --- | --- | --- | --- | --- | --- | --- |
| B1 | significantly stimulated proliferation of AHPs | – | – | – | – | – | – |
| B2 | – | started to inhibit GSK3β autophosphorylation | able to inhibit GSK3 activity | strong interactions; also recorded: directly associate with purified GSK3β; also recorded: interacts directly | – | – | – |
| B3 | – | – | able to inhibit GSK3 activity; also recorded: most potent in inhibiting GSK3 activity; also recorded: most potent inhibitory activity on GSK3β; also recorded: dose-dependent | strong interactions; also recorded: directly associate with purified GSK3β; also recorded: interacts directly | potently inhibited β-catenin, axin and GSK3β phosphorylation | no inhibition | plateaued |
